Measured values published in US7592003B2, “Regulation of toll-like receptors on stem cells” (Oklahoma Medical Research Foundation, priority 2005, dated 2009).

Test system: LKS^− cells
Assay: Serum-free culture of LKS- myeloid/erythroid progenitors (and CMP, GMP subsets), F4/80 by flow cytometry
Format: cell-based, mouse
Details: 72 h, no other growth factors
Method: FIGS. 4A-D—Activation of TLRs through MyD88 bypasses normal differentiation cues and drives monocytes/macrophages differentiation of myeloid progenitors. (FIG. 4A) Sorted LKS^− cells from C57BL/6 or MyD88^−/− mice were stimulated with medium alone, LPS (10 μg/ml), Pam3CSK4 (1 μg/ml), M-CSF, or GM-CSF. After 72 h in culture, cells were analyzed by flow cytometry for expression of F4/80. Open histograms depict staining with the isotype matched Ab for F4/80. Percentages given in each histogram indicate the frequencies of F4/80^+ cells and the results are representative of three independent experiments. (FIG. 4B) The bar graph depicts yields, i.e., numbers of F4/80^+ cell recovered per input progenitor. Data represent mean values with standard deviations from triplicate cultures and the results are representative of three independent experiments (*P<0.005). […] After 72 h in culture, cells were analyzed by flow cytometry for expression of F4/80. […] After 24 or 48 h in culture, cells were analyzed by flow cytometry for expression of F4/80. […]
FIG. 13—TLR stimulation causes rapid production of F4/80^+ cells from LKS^− cells. […] Stimulated wells were analyzed after 24 h or 48 h of culture by flow cytometry for expression of F4/80. […]

B1: GM-CSF: Recombinant mouse GM-CSF, colony stimulating factor, 20 ng/ml (protein, UniProt P01587 18-141, looked up)
Granulocyte-macrophage …: APTRSPITVTRPWKHVEAIKEALNLLDDMPVTLNEEVEVVSNEFSFKKLTCVQTRLKIFEQGLRGNFTKLKGALNMTASYYQTYCPPTPETDCETQVTTYADFIDSLKTFLTDIPFECKKPGQK
For B1, the “Acquisition of F4/80 by LKS- cells” value was “only a subset of LKS^− myeloid progenitors responded”.
